Reference: doi:10.1101/2024.05.03.592356 (bioRxiv, 2024)

Target: the molecule itself
Assay: crystal structure

B1: RdmB, N-terminal His6-tagged (enzyme, Streptomyces purpurascens)
chain: MSSSSPGEPLEPTDQDLDVLLKNLGNLVTPMALRVAATLRLVDHLLAGADTLAGLADRTDTHPQALSRLVRHLTVVGVLEGGEKQGRPLRPTRLGMLLADGHPAQQRAWLDLNGAVSHADLAFTGLLDVVRTGRPAYAGRYGRPFWEDLSADVALADSFDALMSCDEDLAYEAPADAYDWSAVRHVLDVGGGNGGMLAAIALRAPHLRGTLVELAGPAERARRRFADAGLADRVTVAEGDFFKPLPVTADVVLLSFVLLNWSDEDALTILRGCVRALEPGGRLLVLDRADVEGDGADRFFSTLLDLRMLTFMGGRVRTRDEVVDLAGSAGLALASERTSGSTTLPFDFSILEFTAVSEEAAPAAQASEALPAQE
  binding result: binds
